What all share (format): cell-based
The subject of assay [1] is csGRP78 interaction with α2M*. Description: HG-induced profibrotic signaling and matrix production in primary rat renal fibroblasts. Particulars: FIG. 8F. As for the experimental part:
(§1) Cell Culture-Primary mesangial cells (MC) were obtained from male C57BL/6 mice by glomerular sieving and cultured in Dulbecco's modified Eagle's medium (Sigma) supplemented with 20% fetal bovine serum, streptomycin (100 μg/mL) and penicillin (100 μg/mL). 1LN prostate cancer cells, which express high levels of csGRP78 (as described in Hart et al., J Biol Chem. 2002; 277 (44): 42082-42087) were cultured in RPMI 1640 supplemented with 10% fetal bovine serum (ThermoFisher). Cells were grown at 37° C. in 95% 02 and 5% CO2. The immortalized human proximal tubular cell line HK2 (ATCC, Burlington, Canada) was cultured in 10% FBS in DMEM/F12 medium. Primary rat renal fibroblasts (Cell Biologics, Burlington, Canada) and cultured in 10% FBS in DMEM/F12 medium. MC were serum deprived in medium with 1% bovine serum albumin (BSA) and HK2 and RF cells were starved in 0.5% FBS 24 h before treatment with HG (30 mM), mannitol (24.4 mM) as osmotic control or methylamine-activated α2M (100 pM). The peptide sequence in GRP78 to which α2M* binds was used to block their interaction (CLIGRTWNDPSVQQDIKFL) (Leu^98-Leu^115 with an additional N-terminal cysteine) (Gopal et al., J Biol Chem. 2016; 291 (20): 10904-10915). The scrambled peptide, GTNKSQDLWIPQLRDVFI (SEQ ID NO: 4) was used as a control, with both peptides used at 100 nM (Cedarlane). […]

Assay [2] addresses T1, α2M*/csGRP78 interaction (Mus musculus, UniProt Q6GQT1).
T1 construct: endogenous in cells; host or cells: primary mouse mesangial cells (C57BL/6)
T1 sequence (Q6GQT1 33-1474): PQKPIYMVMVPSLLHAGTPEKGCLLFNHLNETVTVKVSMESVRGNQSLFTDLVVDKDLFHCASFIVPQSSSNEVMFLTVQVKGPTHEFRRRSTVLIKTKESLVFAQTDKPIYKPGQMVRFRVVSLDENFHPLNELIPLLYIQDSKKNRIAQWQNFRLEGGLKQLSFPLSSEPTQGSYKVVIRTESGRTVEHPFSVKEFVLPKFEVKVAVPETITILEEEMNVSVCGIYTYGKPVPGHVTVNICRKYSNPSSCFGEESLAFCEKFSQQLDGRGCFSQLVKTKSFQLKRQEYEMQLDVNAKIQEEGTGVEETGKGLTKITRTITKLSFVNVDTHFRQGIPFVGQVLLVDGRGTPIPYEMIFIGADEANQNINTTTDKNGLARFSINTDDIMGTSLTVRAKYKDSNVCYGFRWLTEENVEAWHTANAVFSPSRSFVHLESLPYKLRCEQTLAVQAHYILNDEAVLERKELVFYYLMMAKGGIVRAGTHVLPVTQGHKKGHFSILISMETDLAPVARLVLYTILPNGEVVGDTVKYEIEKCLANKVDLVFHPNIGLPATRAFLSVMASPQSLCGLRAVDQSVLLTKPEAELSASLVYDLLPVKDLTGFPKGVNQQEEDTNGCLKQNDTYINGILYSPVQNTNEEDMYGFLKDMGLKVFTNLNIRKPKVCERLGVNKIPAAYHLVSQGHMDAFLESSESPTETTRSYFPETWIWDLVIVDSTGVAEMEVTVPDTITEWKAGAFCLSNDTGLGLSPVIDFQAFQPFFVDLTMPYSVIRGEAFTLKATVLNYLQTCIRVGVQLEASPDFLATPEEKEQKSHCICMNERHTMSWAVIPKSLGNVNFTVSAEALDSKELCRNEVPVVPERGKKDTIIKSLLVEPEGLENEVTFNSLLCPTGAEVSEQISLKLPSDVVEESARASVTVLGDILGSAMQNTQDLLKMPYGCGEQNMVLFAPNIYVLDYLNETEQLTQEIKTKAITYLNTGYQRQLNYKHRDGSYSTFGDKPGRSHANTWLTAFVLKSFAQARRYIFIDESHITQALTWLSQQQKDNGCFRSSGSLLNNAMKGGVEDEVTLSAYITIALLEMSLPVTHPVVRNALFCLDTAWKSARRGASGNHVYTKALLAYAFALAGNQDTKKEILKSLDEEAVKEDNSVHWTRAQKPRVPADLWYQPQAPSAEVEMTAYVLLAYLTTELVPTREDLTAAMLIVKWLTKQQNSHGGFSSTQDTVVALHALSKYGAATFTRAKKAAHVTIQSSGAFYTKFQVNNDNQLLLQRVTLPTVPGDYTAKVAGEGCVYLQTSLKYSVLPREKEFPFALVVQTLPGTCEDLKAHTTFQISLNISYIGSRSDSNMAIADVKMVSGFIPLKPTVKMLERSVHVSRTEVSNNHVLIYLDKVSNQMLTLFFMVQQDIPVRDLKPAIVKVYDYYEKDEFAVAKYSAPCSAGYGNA
As to the kind of experiment: High glucose (HG)-induced profibrotic responses in primary mesangial cells (MC), immunoblotting. The settings on record: for HG-induced Akt activation (pAkt on S473) / HG-induced upregulation of fibronectin (FN), collagen (Col) IV and CTGF: MC, HG 48 h, peptides 100 nM; for HG-induced Akt activation (pAkt on S473): FIG. 4B; for HG-induced upregulation of fibronectin (FN), collagen (Col) IV and CTGF: FIG. 4C; for HG-induced profibrotic responses in MC: FIG. 11B, 11D. As for the experimental part:
Cell Culture-Primary mesangial cells (MC) were obtained from male C57BL/6 mice by glomerular sieving and cultured in Dulbecco's modified Eagle's medium (Sigma) supplemented with 20% fetal bovine serum, streptomycin (100 μg/mL) and penicillin (100 μg/mL). 1LN prostate cancer cells, which express high levels of csGRP78 (as described in Hart et al., J Biol Chem. 2002; 277 (44): 42082-42087) were cultured in RPMI 1640 supplemented with 10% fetal bovine serum (ThermoFisher). Cells were grown at 37° C. in 95% 02 and 5% CO2. The immortalized human proximal tubular cell line HK2 (ATCC, Burlington, Canada) was cultured in 10% FBS in DMEM/F12 medium. Primary rat renal fibroblasts (Cell Biologics, Burlington, Canada) and cultured in 10% FBS in DMEM/F12 medium. MC were serum deprived in medium with 1% bovine serum albumin (BSA) and HK2 and RF cells were starved in 0.5% FBS 24 h before treatment with HG (30 mM), mannitol (24.4 mM) as osmotic control or methylamine-activated α2M (100 pM). The peptide sequence in GRP78 to which α2M* binds was used to block their interaction (CLIGRTWNDPSVQQDIKFL) (Leu^98-Leu^115 with an additional N-terminal cysteine) (Gopal et al., J Biol Chem. 2016; 291 (20): 10904-10915). The scrambled peptide, GTNKSQDLWIPQLRDVFI (SEQ ID NO: 4) was used as a control, with both peptides used at 100 nM (Cedarlane). Additional peptides were synthesized by Biomatik as follows: 1) peptide lacking the N-terminal cysteine, 2) peptide in which the cysteine was replaced by a methionine, 3) dimerized peptide via the cysteine (LFKIDQQVSPDNWTRGILC—S—S— CLIGRTWNDPSVQQDIKFL) (SEQ ID NO: 5) head to tail cyclization via an amide which leaves the cysteine intact.
Protein Extraction and Immunoblotting-Cells were lysed as described previously (Krepinsky et al. Nitric Oxide Inhibits Stretch-Induced MAPK Activation in Mesangial Cells Through RhoA Inactivation. Published online 2003. doi: 10.1097/01.ASN.00000940.85.04161.A7). Proteins were separated using SDS-PAGE followed by immunoblotting. Antibodies used were: α2M (1:1000, Bioss), mouse monoclonal F-α2M, which detects only conformationally changed α2M* as previously described (1:1000), pAkt S473 (1:1000, Cell Signaling), total Akt (1:1000, Cell Signaling),), pSmad3 Ser423/425 (1:4000, Novus), total Smad3 (1:1000, Abcam), phosphorylated focal adhesion kinase (pFAK) Tyr-397 (1:1000, Millipore, 07-012), FAK (1:1000, Santa Cruz Biotechnology, SC558), LRP1 (1:1000, Abcam), GRP78 (C20) (1:1000, Santa Cruz), platelet derived growth factor-β (PDGFR-β) (1:1000, Cedarlane), collagen IV (Col IV) (1:1000, Cell Signaling), fibronectin (FN) (1:1000, Abcam), connective tissue growth factor (CTGF) (1:1000, Santa Cruz), and tubulin (1:2000, Santa Cruz).

Assay [3] has as its target T2, α2M*/csGRP78 interaction (Homo sapiens, UniProt P01023).
T2 construct: host or cells: 1LN prostate cancer cells (endogenous csGRP78); α2M* added from outside
T2 sequence (P01023 24-1474): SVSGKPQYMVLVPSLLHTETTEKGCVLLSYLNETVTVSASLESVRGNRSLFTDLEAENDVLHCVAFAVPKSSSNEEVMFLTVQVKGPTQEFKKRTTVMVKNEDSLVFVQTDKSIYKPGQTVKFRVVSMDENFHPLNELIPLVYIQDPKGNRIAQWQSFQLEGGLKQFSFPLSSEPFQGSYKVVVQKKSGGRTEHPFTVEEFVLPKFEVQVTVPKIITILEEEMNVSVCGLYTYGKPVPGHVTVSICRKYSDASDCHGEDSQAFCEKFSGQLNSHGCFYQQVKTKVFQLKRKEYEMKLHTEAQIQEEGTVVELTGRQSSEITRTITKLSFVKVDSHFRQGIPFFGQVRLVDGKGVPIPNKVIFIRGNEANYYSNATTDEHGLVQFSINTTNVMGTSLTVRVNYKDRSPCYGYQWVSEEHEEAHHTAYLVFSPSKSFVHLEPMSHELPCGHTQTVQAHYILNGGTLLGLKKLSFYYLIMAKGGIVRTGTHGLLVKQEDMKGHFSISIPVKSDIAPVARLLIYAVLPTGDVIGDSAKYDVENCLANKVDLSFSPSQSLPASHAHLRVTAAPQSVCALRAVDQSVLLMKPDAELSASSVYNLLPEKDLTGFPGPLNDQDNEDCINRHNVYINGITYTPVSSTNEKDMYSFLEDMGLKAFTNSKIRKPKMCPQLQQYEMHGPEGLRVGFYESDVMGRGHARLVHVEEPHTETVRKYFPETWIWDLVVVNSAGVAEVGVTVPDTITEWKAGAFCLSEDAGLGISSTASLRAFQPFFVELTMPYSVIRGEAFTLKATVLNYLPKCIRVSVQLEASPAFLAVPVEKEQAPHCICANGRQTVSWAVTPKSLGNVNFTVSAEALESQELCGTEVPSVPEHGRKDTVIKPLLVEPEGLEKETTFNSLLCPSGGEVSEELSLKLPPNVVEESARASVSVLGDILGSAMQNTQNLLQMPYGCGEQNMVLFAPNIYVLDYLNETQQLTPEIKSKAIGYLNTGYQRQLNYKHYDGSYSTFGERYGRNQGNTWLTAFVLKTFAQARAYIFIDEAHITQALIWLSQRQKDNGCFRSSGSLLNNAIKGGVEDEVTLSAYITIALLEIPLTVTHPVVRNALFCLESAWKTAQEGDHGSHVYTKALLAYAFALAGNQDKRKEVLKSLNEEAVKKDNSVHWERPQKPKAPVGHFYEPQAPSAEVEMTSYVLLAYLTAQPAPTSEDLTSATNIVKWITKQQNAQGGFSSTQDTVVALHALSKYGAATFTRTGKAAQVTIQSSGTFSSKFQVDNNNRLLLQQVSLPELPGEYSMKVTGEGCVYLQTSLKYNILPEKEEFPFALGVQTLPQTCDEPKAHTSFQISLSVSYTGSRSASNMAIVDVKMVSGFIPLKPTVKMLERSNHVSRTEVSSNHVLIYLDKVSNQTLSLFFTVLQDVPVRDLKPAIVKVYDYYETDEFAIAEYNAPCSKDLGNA
As to the kind of experiment: Intracellular calcium assay (Fura-2AM) in 1LN cells treated with α2M*. As for the experimental part: as §1, with “10904-10915).” for “10904-10915). The scrambled peptide, GTNKSQDLWIPQLRDVFI (SEQ ID NO: 4) was used as a control, with both peptides used at 100 nM (Cedarlane).”
Intracellular Calcium Assay—1LN cells were plated in a 96 black walled clear bottom plate and allowed to grow to confluence over 2 days. After loading with the calcium indicator Fura-2AM (5 μM, Abcam) in HBSS for 45 minutes at 37° C. in the dark, baseline fluorescence readings were taken every minute for 5 minutes using a temperature-controlled fluorescent microplate reader (Gemini EM Spectra Max, Molecular Devices) set to 340 and 380 nm excitation and 510 nm emission. After treatment with methylamine-activated α2M (100 pM) with or without antibody (Fα2M or control IgG, 2 μg) and with or without peptide or scrambled peptide (100 nM), readings were taken every minute for 15 minutes. Intracellular calcium concentrations were determined by calculating the ratio of fluorescence signal (340/380 nm).

Assay [4] deals with csGRP78 interaction with α2M*. As to the kind of experiment: HG-induced profibrotic signaling and matrix production in human proximal tubular cell line HK2. Particulars: proximal tubular cells; FIG. 8E. As for the experimental part: as §1

Ends that are not written are not given here.

As for CLIGRTWNDPSVQQDIKFL [Pep], in assay [1], the “HG-induced Akt activation (Ser473) and ECM production” value is “attenuated”. For the same substance, in the assay with α2M*/csGRP78 interaction [2], the “HG-induced Akt activation (pAkt on S473)” value was “prevented HG-induced Akt activation”; the “HG-induced upregulation of fibronectin (FN), collagen (Col) IV and CTGF” value was “prevented”. Further, the “release of intracellular calcium stores in response to α2M*” value in the assay with α2M*/csGRP78 interaction [3] (1-LN cells, α2M* 100 pM, 15 min, peptides 100 nM, FIG. 4A) is “inhibited release of intracellular calcium stores”. Moreover, the “HG-induced Akt activation (Ser473) and ECM production” value in assay [4] is recorded as “attenuated”.

As for “GTNKSQDLWIPQLRDVFI [Scr, scrambled control peptide, reference compound]”, in the assay with α2M*/csGRP78 interaction [2], the “HG-induced Akt activation (pAkt on S473)” value is reported as “had no effect”; the “HG-induced upregulation of fibronectin (FN), collagen (Col) IV and CTGF” value is “had no effect”.

For the substance “LFKIDQQVSPDNWTRGILC—S—S— CLIGRTWNDPSVQQDIKFL (also: homodimer via disulfide between the N-terminal cysteines of two copies) [Dimer Pep, dimerized peptide via the cysteine]”, the “HG-induced profibrotic responses in MC” value in the assay with α2M*/csGRP78 interaction [2] was “do not prevent HG-induced profibrotic responses”. Further, the “calcium signaling in 1LN cells induced by α2M*” value with α2M*/csGRP78 interaction [3] (FIG. 11C) is “do not inhibit calcium signaling”.

In the case of “LIGRTWNDPSVQQDIKFL [Pep woC, peptide without an N-terminal cysteine residue in Leu98-Leu115]”, the “HG-induced profibrotic responses in MC” value with α2M*/csGRP78 interaction [2] is recorded as “does not prevent HG-induced profibrotic responses”. Moreover, the “calcium signaling in 1LN cells induced by α2M*” value with α2M*/csGRP78 interaction [3] (peptide tested at 100 pM and 100 nM, FIG. 11A) was “did not inhibit calcium signaling”.

The record behind these values is US20240424056A1, “Peptides for Anti Fibrotic Therapy” (McMaster University, priority 2021, published 2024).
